This is an account of results in paper PMC6687201, “Atg11 tethers Atg9 vesicles to initiate selective autophagy” (PLoS Biology, 2019).

In test [1] the target is T1, recombinant purified Atg11 (Atg11-His6) (yeast, UniProt Q12527 1-1178, Atto565 label in the GUV experiments).
T1 construct: N-terminal residual glycine-proline from PreScission protease digestion; Atg11, yeast; expressed from pCoofy37-Atg11; measured molecular weight 136 kDa; also called His-tagged Atg11; Atg11^Atto565; source: E. coli BL21 (DE3), coexpressed with chaperones from pG-KJE8, purified (Ni-NTA, PreScission digestion, gel filtration); not shown: His6, C-terminal, kept
T1 sequence: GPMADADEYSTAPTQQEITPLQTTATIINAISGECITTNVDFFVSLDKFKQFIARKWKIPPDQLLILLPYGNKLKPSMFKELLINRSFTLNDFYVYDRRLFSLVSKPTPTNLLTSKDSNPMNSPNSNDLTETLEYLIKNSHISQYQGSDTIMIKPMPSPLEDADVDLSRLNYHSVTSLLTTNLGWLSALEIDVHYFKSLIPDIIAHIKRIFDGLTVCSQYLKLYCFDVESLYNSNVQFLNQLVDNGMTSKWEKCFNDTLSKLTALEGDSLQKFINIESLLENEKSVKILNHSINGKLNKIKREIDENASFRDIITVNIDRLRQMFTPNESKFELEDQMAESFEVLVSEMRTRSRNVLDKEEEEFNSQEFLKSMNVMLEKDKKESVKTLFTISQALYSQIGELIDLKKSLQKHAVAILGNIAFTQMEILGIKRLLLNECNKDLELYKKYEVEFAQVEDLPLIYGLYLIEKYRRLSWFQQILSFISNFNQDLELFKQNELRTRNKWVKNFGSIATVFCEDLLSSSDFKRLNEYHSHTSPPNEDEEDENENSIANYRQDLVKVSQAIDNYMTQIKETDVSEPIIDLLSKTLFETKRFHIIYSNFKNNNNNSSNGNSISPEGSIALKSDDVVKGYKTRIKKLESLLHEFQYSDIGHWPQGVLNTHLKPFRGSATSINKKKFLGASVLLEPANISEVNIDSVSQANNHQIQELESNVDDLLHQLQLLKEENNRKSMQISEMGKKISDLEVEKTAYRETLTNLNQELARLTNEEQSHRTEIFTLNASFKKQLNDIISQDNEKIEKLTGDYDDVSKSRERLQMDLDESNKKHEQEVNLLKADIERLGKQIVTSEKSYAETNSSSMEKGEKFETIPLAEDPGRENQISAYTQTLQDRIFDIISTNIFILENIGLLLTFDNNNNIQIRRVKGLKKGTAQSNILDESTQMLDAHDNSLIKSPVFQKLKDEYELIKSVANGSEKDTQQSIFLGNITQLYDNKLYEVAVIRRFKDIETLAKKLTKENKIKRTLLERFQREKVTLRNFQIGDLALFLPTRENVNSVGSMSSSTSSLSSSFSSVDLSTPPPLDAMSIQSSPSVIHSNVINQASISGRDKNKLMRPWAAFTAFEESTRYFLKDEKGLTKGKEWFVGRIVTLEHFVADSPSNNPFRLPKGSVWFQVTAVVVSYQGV
Nature of the test: pull-down; 10 μg recombinant GST-tagged bait coupled to Glutathione-resin, with recombinant Atg11; SDS-PAGE. Conditions: both partners purified.

In a further test the target is T2, HA-tagged Atg9 (S. cerevisiae, UniProt Q12142 1-997).
T2 construct: Atg9, transmembrane autophagy protein, yeast; also called HA-Atg9; source: yeast cells expressing HA-tagged Atg9, in lysate
T2 sequence (looked up): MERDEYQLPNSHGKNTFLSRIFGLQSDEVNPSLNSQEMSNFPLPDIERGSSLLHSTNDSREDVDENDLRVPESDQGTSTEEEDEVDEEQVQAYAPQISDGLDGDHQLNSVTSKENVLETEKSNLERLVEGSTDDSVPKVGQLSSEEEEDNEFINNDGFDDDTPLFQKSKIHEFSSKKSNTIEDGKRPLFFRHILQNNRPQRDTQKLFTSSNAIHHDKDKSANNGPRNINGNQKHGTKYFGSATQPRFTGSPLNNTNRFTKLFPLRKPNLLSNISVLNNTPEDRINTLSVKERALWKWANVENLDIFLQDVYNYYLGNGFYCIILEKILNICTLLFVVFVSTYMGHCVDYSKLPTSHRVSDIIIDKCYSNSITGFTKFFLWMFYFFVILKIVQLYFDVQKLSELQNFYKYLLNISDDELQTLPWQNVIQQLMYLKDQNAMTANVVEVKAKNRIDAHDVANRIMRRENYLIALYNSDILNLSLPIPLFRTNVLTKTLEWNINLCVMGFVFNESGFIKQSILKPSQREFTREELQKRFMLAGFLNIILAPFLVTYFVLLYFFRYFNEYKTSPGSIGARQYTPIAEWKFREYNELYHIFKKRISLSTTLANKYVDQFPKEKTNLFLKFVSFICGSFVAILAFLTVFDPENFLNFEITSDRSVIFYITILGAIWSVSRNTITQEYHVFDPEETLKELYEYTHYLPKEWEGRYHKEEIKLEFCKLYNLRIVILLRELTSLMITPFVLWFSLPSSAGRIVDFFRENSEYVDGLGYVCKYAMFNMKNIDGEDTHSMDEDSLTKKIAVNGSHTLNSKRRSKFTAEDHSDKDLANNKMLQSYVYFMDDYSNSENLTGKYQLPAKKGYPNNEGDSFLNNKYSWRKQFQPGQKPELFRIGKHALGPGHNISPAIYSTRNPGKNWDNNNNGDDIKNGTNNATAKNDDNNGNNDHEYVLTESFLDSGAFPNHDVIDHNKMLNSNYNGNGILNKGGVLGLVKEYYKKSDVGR
The test can be described thus: co-IP; competition: purified Atg17 (0, 1, 4 μM) added to lysates of nonstarved cells; IP of Atg11-myc, HA-Atg9 detected by blot. To be noted: one partner purified.

The target in test [2] is T3, Atg9^core reconstituted in proteoliposomes (yeast, UniProt Q12142 281-779).
T3 construct: Atg9 core, yeast; Liposomes: 20 mol% cholesterol, 10 mol% POPE, 60 mol% POPC, 10 mol% POPS; protein:lipid 1:200; also called Atg9-PLs; Atg9 vesicles; source: reconstituted in liposomes by rapid dilution
T3 sequence (looked up): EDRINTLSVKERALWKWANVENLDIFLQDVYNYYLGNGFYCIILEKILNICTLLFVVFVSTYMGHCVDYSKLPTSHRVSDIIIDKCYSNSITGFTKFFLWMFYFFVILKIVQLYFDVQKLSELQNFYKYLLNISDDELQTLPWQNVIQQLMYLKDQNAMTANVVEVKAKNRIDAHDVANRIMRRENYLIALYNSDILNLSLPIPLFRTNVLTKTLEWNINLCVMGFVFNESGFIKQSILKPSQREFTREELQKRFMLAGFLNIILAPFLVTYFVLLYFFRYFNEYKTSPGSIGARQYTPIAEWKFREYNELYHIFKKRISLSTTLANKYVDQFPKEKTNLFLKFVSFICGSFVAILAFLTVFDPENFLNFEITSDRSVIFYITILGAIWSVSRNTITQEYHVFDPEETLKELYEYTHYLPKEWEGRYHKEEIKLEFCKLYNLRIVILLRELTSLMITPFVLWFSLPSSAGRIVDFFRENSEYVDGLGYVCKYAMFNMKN
The test can be described thus: co-floatation with proteoliposomes; competition: Atg11 and Atg17 coincubated with Atg9-PLs at different stoichiometric ratios (Atg11 kept constant); floated fraction on SDS-PAGE, amounts from band intensities. To be noted: both partners purified.

Test [3] deals with T3, Atg9^core reconstituted in …. Nature of the test: cell-based or functional assay.

Where a chain is given by its changes, count along the chain named. Names and notes keep the numbering of the source.

B1: GST-tagged wild-type Atg29 (natural protein, yeast, UniProt Q12092 1-213, looked up)
chain: MIMNSTNTVVYIKVKGRRPQGFLDPPKFEWNGTKERQLWTMVSNLNYSQDQIDWQNLSKIFETPEFFLKKRTYKLFAEHLELLQLQLEKKRDLEKYSNDQVNEGMSDLIHKYTPTLQNDNLLNVSASPLTTERQDSEEVETEVTNEALQHLQTSKILNIHKKTSDSENKPNDKLDKDGINKEMECGSSDDDLSSSLSVSKSALEEALMDRLQF
notes: Atg29, yeast; also called GST-Atg29^WT; Atg29^WT
As to B1, the binding result in test [1] is listed as “binds”.

B2: GST-tagged phosphomimetic Atg29 (Atg29^SD) (natural protein, yeast, UniProt Q12092 1-213, looked up)
chain: B1 chain with S197D, S199D, S201D
notes: Atg29, yeast, phosphomimetic variant; also called GST-Atg29^SD; Atg29^(S197D, S199D, S201D); source: recombinant, purified
In the case of B2, the binding result in test [1] was “binds”.

B3: GST-Atg31-Atg29^SD subcomplex (complex, yeast)
chain 1: MNVTVTVYDKNVKYRLEENIKNNKGPSNDDQPAYNNESKSTDGSDYAMFPTNIKYIFEDNNDELVDSSDAALTAGIDKVGDELENVIIVQLDESGSLEDITLISDQYELLSHRTNSLSLEENQMRTLSSHGDDKSNDEEEELSVDSDRFRVDSDIELDVISQFCDLSPFLRDLSLNDLIKLYVTQNEQLQMLSNSV
chain 2: B1 chain with S197D, S199D, S201D
notes: Atg31, yeast; Atg29, yeast, phosphomimetic variant; also called GST-tagged Atg31 (31) and Atg29^SD (29^SD); source: recombinant, coexpressed and purified as subcomplex
As to B3, the binding result in test [1] is listed as “binds”.

B4: GST-Atg31-Atg29^WT subcomplex (complex, yeast)
chain 1: B3 chain 1
chain 2: B1 chain
notes: Atg31, yeast; Atg29, yeast; also called GST-tagged Atg31 (31) and Atg29^WT (29); source: recombinant, coexpressed and purified as subcomplex
For the molecule B4, the binding result in test [1] is on record as “binds”.

B5: recombinant purified Atg17 (natural protein, yeast, UniProt Q06410 1-417, looked up)
chain: MNEADVTKFVNNARKTLTDAQLLCSSANLRIVDIKKKLSSWQLSISKLNFLIVGLRQQGKFLYTILKEGIGTKLIQKQWNQAVLVVLVDEMKYWQYEITSKVQRLDGIVNELSISEKDDTDPSKLGDYISRDNVNLLNDKLKEVPVIERQIENIKLQYENMVRKVNKELIDTKLTDVTQKFQSKFGIDNLMETNVAEQFSRELTDLEKDLAEIMNSLTQHFDKTLLLQDKKIDNDEREELFKVVQGDDKELYNIFKTLHEVIDDVDKTILNLGQFLQAKIKEKTELHSEVSEIINDFNRNLEYLLIFKDISNLIDSFKNSCTQDIQTTKELCEFYDNFEESYGNLVLEAKRRKDVANRMKTILKDCEKQLQNLDAQDQEERQNFIAENGTYLPETIWPGKIDDFSSLYTLNYNVKNP
notes: Atg17, scaffolding protein of nonselective autophagy, yeast
B5: the “molar excess of Atg17 over Atg11 for equal binding to Atg9” value with HA-tagged Atg9 was determined as 25 fold. Also, the “molar excess of Atg17 over Atg11 for similar recovery of both” value in test [2] worked out at 25 fold. In test [3], the “hydrodynamic radius of Atg9 vesicles against control SUVs in the presence of Atg17 (dynamic light scattering; vesicle tethering)” value worked out at 2 fold.
